Data reported in patent publication US10500249B2, “Compositions and methods for preventing or treating diseases, conditions, or processes characterized by aberrant fibroblast proliferation and extracellular matrix deposition” (MOERAE MATRIX, INC., priority 2014, dated 2019).

What was measured:
Experiment in all cases: Kinase Profiling Assay
Format in all cases: biochemical
Conditions in all cases: 100 μM
CHK2(I157T) (h) = molecular target: T1, CHK2(I157T) (h) (Homo sapiens, UniProt O96017, I157T)
T1 construct: purchased Millipore
T1 sequence (O96017 whole entry I157T): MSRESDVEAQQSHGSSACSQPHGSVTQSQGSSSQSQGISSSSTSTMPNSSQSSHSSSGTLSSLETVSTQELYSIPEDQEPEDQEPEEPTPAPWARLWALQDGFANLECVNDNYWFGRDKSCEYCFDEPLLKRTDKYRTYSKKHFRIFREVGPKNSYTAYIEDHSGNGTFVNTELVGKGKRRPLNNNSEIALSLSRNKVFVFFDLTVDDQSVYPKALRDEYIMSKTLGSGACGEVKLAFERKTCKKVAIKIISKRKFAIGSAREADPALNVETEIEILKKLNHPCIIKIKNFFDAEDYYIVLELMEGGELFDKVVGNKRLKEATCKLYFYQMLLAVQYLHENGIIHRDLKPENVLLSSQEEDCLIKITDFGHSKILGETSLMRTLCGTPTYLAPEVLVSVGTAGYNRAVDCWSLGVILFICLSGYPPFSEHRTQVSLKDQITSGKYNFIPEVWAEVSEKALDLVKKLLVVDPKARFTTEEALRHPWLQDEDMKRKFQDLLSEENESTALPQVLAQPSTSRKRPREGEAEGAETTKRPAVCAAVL
In short: (§1)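 Kinase inhibition by MK2 inhibitory peptides was profiled radiometrically, with substrate phosphorylation from labeled ATP read by scintillation after capture on a charged filter. Values are relative to 100% activity and measured in duplicate.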

ErbB4 (h) = ErbB4 (h) (Homo sapiens, UniProt Q15303)
Chain of ErbB4 (h) (Q15303 26-1308): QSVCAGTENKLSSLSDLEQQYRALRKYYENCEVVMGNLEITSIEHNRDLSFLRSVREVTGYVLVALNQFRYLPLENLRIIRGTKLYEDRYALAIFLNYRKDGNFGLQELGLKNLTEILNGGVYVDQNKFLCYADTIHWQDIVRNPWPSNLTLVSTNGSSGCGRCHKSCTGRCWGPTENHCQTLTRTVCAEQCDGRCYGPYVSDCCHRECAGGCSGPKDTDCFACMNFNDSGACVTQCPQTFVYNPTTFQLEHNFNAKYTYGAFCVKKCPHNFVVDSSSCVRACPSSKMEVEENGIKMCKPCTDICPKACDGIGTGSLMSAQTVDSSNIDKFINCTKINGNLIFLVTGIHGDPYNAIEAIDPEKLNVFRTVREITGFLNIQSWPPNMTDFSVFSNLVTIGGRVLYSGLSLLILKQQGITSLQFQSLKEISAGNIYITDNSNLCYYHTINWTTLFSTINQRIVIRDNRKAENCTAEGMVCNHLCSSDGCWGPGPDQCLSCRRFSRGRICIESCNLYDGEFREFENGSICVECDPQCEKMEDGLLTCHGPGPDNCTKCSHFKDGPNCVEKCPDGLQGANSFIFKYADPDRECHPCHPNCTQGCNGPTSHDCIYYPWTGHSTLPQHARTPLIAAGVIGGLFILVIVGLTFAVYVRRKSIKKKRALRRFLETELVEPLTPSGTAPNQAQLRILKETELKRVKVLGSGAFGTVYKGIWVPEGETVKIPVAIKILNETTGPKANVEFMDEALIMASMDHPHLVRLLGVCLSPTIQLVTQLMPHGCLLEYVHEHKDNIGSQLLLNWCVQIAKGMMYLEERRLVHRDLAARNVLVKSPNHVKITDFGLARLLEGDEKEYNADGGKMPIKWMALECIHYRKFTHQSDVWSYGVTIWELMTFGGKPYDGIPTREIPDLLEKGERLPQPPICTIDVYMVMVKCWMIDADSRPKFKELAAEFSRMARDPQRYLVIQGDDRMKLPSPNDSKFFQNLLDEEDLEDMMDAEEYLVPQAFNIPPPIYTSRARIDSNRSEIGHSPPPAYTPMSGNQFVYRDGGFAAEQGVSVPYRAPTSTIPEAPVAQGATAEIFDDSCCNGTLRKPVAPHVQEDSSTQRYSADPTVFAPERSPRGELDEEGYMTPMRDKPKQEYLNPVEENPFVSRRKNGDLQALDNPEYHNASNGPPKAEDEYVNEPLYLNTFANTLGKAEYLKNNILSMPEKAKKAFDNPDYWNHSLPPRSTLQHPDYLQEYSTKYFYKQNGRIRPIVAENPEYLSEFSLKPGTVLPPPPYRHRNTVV
In short: as §1

Src(1-530) (h) = molecular target: T2, Src(1-530) (h) (Homo sapiens, UniProt P12931)
T2 construct: Src(1-530) (h)
In short: as §1

ROCK-II (h) = ROCK-II (h) (Homo sapiens, UniProt O75116)
Chain of ROCK-II (h) (O75116 whole entry): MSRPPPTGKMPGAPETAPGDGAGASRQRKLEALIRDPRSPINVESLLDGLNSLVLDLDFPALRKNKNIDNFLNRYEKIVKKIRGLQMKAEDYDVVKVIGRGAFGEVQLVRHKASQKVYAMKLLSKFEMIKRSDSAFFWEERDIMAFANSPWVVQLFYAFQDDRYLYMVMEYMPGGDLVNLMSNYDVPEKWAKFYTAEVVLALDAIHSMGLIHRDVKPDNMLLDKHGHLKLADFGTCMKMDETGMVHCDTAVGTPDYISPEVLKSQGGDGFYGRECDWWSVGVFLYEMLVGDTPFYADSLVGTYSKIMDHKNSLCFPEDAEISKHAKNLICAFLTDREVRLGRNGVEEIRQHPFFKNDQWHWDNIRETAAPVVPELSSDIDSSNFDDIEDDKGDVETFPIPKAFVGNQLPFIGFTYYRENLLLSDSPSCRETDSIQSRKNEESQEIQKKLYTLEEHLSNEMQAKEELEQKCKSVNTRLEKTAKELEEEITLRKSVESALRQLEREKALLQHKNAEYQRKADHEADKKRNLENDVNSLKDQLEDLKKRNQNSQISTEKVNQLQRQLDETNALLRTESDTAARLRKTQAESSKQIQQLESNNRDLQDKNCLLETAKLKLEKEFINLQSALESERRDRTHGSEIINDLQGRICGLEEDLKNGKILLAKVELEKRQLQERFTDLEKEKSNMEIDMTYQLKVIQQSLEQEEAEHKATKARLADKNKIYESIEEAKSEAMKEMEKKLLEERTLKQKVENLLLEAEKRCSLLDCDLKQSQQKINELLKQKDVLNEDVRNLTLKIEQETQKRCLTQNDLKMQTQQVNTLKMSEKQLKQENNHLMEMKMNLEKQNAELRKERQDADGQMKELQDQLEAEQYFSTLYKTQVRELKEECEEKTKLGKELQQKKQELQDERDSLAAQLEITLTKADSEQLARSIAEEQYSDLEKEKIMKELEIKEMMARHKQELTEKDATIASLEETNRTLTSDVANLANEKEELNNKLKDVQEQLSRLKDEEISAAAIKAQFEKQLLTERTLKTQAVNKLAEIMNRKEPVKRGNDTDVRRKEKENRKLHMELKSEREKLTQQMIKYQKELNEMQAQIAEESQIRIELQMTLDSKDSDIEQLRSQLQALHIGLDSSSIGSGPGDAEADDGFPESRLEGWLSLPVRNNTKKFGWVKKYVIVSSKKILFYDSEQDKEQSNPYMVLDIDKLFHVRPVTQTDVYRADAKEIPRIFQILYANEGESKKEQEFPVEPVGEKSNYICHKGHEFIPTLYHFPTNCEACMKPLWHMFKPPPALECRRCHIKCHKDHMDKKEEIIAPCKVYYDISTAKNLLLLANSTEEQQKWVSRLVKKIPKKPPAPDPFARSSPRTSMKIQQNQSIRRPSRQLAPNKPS
In short: as §1

EphA3 (h) = molecular target: T3, EphA3 (h) (Homo sapiens, UniProt P29320)
T3 construct: purchased Millipore
T3 sequence (P29320 21-983): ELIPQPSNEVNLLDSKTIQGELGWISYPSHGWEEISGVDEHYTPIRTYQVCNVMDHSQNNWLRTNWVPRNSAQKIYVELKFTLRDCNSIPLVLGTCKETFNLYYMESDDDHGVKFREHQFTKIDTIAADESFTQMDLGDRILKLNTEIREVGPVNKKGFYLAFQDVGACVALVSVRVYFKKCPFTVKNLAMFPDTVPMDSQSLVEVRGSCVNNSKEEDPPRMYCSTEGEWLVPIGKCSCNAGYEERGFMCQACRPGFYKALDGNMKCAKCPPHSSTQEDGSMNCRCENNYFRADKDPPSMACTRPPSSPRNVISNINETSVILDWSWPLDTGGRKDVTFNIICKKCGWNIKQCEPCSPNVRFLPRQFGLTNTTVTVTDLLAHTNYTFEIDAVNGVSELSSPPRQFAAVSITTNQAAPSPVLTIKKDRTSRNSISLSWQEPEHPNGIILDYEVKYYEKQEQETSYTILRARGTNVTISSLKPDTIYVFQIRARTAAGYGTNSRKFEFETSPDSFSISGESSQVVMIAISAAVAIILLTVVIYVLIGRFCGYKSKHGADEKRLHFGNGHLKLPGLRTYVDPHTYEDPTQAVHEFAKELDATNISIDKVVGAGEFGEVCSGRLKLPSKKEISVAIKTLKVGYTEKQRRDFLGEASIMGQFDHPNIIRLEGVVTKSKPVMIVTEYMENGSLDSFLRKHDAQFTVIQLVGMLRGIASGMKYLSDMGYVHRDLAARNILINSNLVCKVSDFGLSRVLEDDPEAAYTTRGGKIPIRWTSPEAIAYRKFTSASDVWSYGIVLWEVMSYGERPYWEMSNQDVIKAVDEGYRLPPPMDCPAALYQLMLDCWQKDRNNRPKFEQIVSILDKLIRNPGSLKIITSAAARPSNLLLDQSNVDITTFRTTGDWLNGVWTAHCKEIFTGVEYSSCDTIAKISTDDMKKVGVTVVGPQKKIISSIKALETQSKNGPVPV
In short: as §1

JNK3 (h) = JNK3 (h) (Homo sapiens, UniProt P53779)
Chain of JNK3 (h) (P53779 whole entry): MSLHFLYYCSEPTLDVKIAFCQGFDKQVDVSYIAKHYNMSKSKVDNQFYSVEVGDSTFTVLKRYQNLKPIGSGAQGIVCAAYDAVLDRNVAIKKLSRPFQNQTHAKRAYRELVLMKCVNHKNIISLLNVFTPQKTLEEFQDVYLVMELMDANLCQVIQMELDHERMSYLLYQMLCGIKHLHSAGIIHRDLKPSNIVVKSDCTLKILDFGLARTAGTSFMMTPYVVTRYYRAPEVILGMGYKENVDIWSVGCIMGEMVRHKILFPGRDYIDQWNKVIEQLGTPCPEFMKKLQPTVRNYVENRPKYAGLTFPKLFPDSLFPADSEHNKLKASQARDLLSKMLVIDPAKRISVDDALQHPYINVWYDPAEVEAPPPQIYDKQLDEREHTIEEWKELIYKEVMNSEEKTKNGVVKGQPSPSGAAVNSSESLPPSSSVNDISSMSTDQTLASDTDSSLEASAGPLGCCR
In short: as §1

IR (h), activated = molecular target: T4, IR (h), activated (Homo sapiens, UniProt P06213)
T4 construct: purchased Millipore
T4 sequence (P06213 1005-1310 limits assumed): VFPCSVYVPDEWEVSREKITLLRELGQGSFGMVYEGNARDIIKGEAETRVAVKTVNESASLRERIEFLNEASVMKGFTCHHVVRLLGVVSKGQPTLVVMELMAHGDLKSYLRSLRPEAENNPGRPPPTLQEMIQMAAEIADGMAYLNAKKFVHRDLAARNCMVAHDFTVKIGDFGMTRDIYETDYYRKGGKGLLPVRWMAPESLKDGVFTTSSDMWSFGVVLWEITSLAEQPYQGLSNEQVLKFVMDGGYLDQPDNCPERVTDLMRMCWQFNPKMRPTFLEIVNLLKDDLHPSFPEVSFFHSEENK
In short: as §1

PKCε (h) = molecular target: T5, PKCε (h) (Homo sapiens, UniProt Q02156)
T5 construct: purchased Millipore
T5 sequence (Q02156 1-737): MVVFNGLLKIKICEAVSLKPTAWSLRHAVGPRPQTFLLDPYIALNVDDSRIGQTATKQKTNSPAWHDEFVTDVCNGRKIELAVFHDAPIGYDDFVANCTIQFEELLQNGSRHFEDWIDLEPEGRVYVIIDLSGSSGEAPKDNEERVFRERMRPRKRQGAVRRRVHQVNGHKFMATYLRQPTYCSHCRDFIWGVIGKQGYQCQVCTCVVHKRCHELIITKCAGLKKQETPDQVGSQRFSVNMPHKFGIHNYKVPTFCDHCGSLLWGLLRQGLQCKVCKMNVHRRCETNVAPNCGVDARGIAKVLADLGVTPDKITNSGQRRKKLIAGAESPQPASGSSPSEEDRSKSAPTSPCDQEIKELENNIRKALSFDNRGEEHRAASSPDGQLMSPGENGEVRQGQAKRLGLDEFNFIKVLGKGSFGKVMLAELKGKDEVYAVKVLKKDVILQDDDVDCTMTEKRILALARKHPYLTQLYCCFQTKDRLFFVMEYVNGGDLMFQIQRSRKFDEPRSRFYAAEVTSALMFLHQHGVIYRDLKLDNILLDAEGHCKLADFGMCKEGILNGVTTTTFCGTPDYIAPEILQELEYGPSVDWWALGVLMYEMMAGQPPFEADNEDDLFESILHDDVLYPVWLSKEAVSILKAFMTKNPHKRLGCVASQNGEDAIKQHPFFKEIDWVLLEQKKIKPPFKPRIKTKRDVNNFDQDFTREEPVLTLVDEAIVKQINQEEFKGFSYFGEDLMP
In short: as §1

p70S6K (h) = molecular target: T6, p70S6K (h) (Homo sapiens, UniProt P23443)
T6 construct: purchased Millipore
In short: as §1

FGFR1 (h) = FGFR1 (h) (Homo sapiens, UniProt P11362)
Chain of FGFR1 (h) (P11362 22-822): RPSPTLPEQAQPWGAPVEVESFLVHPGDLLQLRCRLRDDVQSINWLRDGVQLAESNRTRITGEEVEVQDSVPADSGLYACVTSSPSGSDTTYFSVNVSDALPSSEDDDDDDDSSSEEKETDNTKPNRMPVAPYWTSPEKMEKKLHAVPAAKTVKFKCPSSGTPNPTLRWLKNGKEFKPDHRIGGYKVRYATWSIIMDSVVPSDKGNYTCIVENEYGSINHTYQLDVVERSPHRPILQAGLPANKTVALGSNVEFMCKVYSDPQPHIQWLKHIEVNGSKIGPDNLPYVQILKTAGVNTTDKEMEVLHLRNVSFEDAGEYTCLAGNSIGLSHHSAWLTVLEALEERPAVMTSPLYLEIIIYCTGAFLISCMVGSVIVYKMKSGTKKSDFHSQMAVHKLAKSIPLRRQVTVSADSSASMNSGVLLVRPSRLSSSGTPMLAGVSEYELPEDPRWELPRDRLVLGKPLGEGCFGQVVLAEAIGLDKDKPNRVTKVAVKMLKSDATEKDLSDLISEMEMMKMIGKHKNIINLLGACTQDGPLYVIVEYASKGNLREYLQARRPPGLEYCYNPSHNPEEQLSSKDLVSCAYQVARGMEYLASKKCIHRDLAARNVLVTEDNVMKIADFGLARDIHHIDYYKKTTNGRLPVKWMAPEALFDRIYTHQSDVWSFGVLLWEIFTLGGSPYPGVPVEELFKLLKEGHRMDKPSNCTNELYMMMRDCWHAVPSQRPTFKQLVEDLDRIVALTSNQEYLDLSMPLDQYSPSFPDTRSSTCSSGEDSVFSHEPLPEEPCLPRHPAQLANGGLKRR
In short: as §1

| Sequence | % activity (CHK2(I157T) (h)) | % activity (ErbB4 (h)) | % activity (Src(1-530) (h)) | % activity (ROCK-II (h)) | % activity (EphA3 (h)) | % activity (JNK3 (h)) | % activity (IR (h), activated) | % activity (PKCε (h)) | % activity (p70S6K (h)) | % activity (FGFR1 (h)) |
| --- | --- | --- | --- | --- | --- | --- | --- | --- | --- | --- |
| FAKLAARLYRKALARQLGVAA [MMI-0300] | 43% | 40% | 23% | 74% | 6% | 89% | 79% | 79% | 35% | 55% |
| HRRIKAWLKKIKALARQLGVAA (Mammalian) [MMI-0500] | 3% | 2% | 21% | 2% | 33% | 171% | 90% | 23% | 3% | 18% |
| YARAAARQARAKALNRQLGVA (Mammalian) [MMI-0200] | 85% | 82% | 75% | 85% |  | 90% |  | 98% | 84% | 97% |
| KAFAKLAARLYRKALARQLGVAA [MMI-0400] | 41% | 0% | 19% | 77% | 12% | 70% | 59% | 59% | 33% | 59% |
